We go through two molecules from paper PMC5298935 (2016).

As a reminder, the Kd is the equilibrium constant for the complex coming apart. A higher Kd goes with lower affinity.

What all share (assay): NMR titration
In experiment [1] the target is T1, IRAK1 p131 peptide 126-135 (Homo sapiens, UniProt P51617).
T1 chain: EAEAW[pS]PRKL

Experiment [2] concerns the target T2, IRAK1 p163 peptide 157-180 (Homo sapiens, UniProt P51617, phospho-Ser163).
T2 chain: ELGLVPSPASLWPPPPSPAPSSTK

The target of experiment [3] is T3, IRAK1 p144 peptide 140-149 (Homo sapiens, UniProt P51617).
T3 chain: STFL[pS]PAFPG

Experiment [4] has as its target T4, IRAK1 p163 peptide 157-180 (Homo sapiens, UniProt P51617).
T4 chain: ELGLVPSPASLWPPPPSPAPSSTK

Square brackets hold non-standard residues; d marks the D form. Ends that are not written are not given here. pS = N[C@@H](COP(=O)(O)O)C(=O)O

B1: Pin1 PPIase domain 46-163 (protein)
chain: KNGQGEPARVRCSHLLVKHSQSRRPSSWRQEKITRTKEEALELINGYIQKIKSGEEDFESLASQFSDCSSAKARGDLGAFSRGQMQKPFEDASFALRTGEMSGPVFTDSGIHIILRTE
In the case of B1, the Kd in experiment [1] came to 161 µM; in experiment [2], 230 µM; in experiment [3], 689 µM.

B2: Pin1 WW domain 1-50 (peptide)
chain: MADEEKLPPGWEKRMSRSSGRVYYFNHITNASQWERPSGNSSSGGKNGQG
modifications: not fully specified; phospho-Ser163
As to B2, the Kd in experiment [4] is 385 µM.
